B1: ubiquitin-specific peptidase 17 (USP17), wild type [not stated] / TNFR-associated factor 3 (TRAF3) [not stated] (parent complex)
chain 1: MEDDSLYLGGEWQFNHFSKLTSSRPDAAFAEIQRTSLPEKSPLSSEARVDLCDDLAPVARQLAPRKKLPLSSRRPAAVGAGLQNMGNTCYENASLQCLTYTPPLANYMLSREHSQTCQRPKCCMLCTMQAHITWALHSPGHVIQPSQALAAGFHRGKQEDAHEFLMFTVDAMKKACLPGHKQVDHHSKDTTLIHQIFGGCWRSQIKCLHCHGISDTFDPYLDIALDIQAAQSVKQALEQLVKPEELNGENAYHCGLCLQRAPASKTLTLHTSAKVLILVLKRFSDVTGNKLAKNVQYPECLDMQPYMSQQNTGPLVYVLYAVLVHAGWSCHDGHYFSYVKAQEGQWYKMDDAKVTACSITSVLSQQAYVLFYIQKSEWERHSESVSRGREPRALGAEDTDRRATQGELKRDHPCLQAPELDERLVERATQESTLDHWKFPQEQNKTKPEFNVRKVEGTLPPNVLVIHQSKYKCGMKNHHPEQQSSLLNLSSTTRTDQESVNTGTLASLQGRTRRSKGKNKHSKRALLVCQ
chain 2: MESSKKMDSPGALQTNPPLKLHTDRSAGTPVFVPEQGGYKEKFVKTVEDKYKCEKCHLVLCSPKQTECGHRFCESCMAALLSSSSPKCTACQESIVKDKVFKDNCCKREILALQIYCRNESRGCAEQLMLGHLLVHLKNDCHFEELPCVRPDCKEKVLRKDLRDHVEKACKYREATCSHCKSQVPMIALQKHEDTDCPCVVVSCPHKCSVQTLLRSELSAHLSECVNAPSTCSFKRYGCVFQGTNQQIKAHEASSAVQHVNLLKEWSNSLEKKVSLLQNESVEKNKSIQSLHNQICSFEIEIERQKEMLRNNESKILHLQRVIDSQAEKLKELDKEIRPFRQNWEEADSMKSSVESLQNRVTELESVDKSAGQVARNTGLLESQLSRHDQMLSVHDIRLADMDLRFQVLETASYNGVLIWKIRDYKRRKQEAVMGKTLSLYSQPFYTGYFGYKMCARVYLNGDGMGKGTHLSLFFVIMRGEYDALLPWPFKQKVTLMLMDQGSSRRHLGDAFKPDPNSSSFKKPTGEMNIASGCPVFVAQTVLENGTYIKDDTIFIKVIVDTSDLPDP
B2: ubiquitin-specific peptidase 17 (USP17), wild type [not stated] / TNFR-associated factor 2 (TRAF2) [not stated] (parent complex)
chain 1: B1 chain 1
chain 2: MAAASVTPPGSLELLQPGFSKTLLGTKLEAKYLCSACRNVLRRPFQAQCGHRYCSFCLASILSSGPQNCAACVHEGIYEEGISILESSSAFPDNAARREVESLPAVCPSDGCTWKGTLKEYESCHEGRCPLMLTECPACKGLVRLGEKERHLEHECPERSLSCRHCRAPCCGADVKAHHEVCPKFPLTCDGCGKKKIPREKFQDHVKTCGKCRVPCRFHAIGCLETVEGEKQQEHEVQWLREHLAMLLSSVLEAKPLLGDQSHAGSELLQRCESLEKKTATFENIVCVLNREVERVAMTAEACSRQHRLDQDKIEALSSKVQQLERSIGLKDLAMADLEQKVLEMEASTYDGVFIWKISDFARKRQEAVAGRIPAIFSPAFYTSRYGYKMCLRIYLNGDGTGRGTHLSLFFVVMKGPNDALLRWPFNQKVTLMLLDQNNREHVIDAFRPDVTSSSFQRPVNDMNIASGCPLFCPVSKMEAKNSYVRDDAIFIKAIVDLTGL

One test covers variants of B1. The test is described as follows: co-immunoprecipitation (IP: Myc, IB: Flag) with band quantification; coexpressed in HEK293 cells; parent: 100; read off a plot.
Consider chain 1 MEDDSLYLGGEWQFNHFSKLTSSRPDAAFAEIQRTSLPEKSPLSSEARVDLCDDLAPVARQLAPRKKLPLSSRRPAAVGAGLQNMGNTCYENASLQCLTYTPPLANYMLSREHSQTCQRPKCCMLCTMQAHITWALHSPGHVIQPSQALAAGFHRGKQEDAHEFLMFTVDAMKKACLPGHKQVDHHSKDTTLIHQIFGGCWRSQIKCLHCHGISDTFDPYLDIALDIQAAQSVKQALEQLVKPEELNGENAYHCGLCLQRAPASKTLTLHTSAKVLILVLKRFSDVTGNKLAKNVQYPECLDMQPYMSQQNTGPLVYVLYAVLVHAGWSCHDGHYFSYVKAQEGQWYKMDDAKVTACSITSVLSQQAYVLFYIQKSEWERHSESVSRGREPRALGAEDTDRRATQGELKRDHPCLQAPELDERLVERATQESTLDHWKFPQEQNKTKPEFNVRKVEGTLPPNVLVIHQSKYKCGMKNHHPEQQLSLLNLSSTTRTDQESVNTGTLASLQGRTRRSKGKNKHSKRALLVCQ [chain 1 S484L], for which the percent of parent was about 38%.

In the case of chain 1 MEDDSLYLGGEWQFNHFSKLTSSRPDAAFAEIQRTSLPEKSPLSSEARVDLCDDLAPVARQLAPRKKLPLSSRRPAAVGAGLQNMGNTCYENASLQCLTYTPPLANYMLSREHSQTCQRPKCCMLCTMQAHITWALHSPGHVIQPSQALAAGFHRGKQEDAHEFLMFTVDAMKKACLPGHKQVDHHSKDTTLIHQIFGGCWRSQIKCLHCHGISDTFDPYLDIALDIQAAQSVKQALEQLVKPEELNGENAYHCGLCLQRAPASKTLTLHTSAKVLILVLKRFSDVTGNKLAKNVQYPECLDMQPYMSQQNTGPLVYVLYAVLVHAGWSCHDGHYFSYVKAQEGQWYKMDDAKVTACSITSVLSQQAYVLFYIQKSEWERHSESVSRGREPRALGAEDTDRRATQGELKRDHPCLQAPELDERLVERATQESTLDHWKFPQEQNKTKPEFNVRKVEGTLPPNVLVIHQSKYKCGMKNHHPERQSSLLNLSSTTRTDQESVNTGTLASLQGRTRRSKGKNKHSKRALLVCQ [chain 1 Q482R], the percent of parent is about 30%.

As for chain 1 MEDDSLYLGGEWQFNHFSKLTSSRPDAAFAEIQRTSLPEKSPLSSEARVDLCDDLAPVARQLAPRKKLPLSSRRPAAVGAGLQNMGNTCYENASLQCLTYTPPLANYMLSREHSQTCQRPKCCMLCTMQAHITWALHSPGHVIQPSQALAAGFHRGKQEDAHEFLMFTVDAMKKACLPGHKQVDHHSKDTTLIHQIFGGCWRSQIKCLHCHGISDTFDPYLDIALDIQAAQSVKQALEQLVKPEELNGENAYHCGLCLQRAPASKTLTLHTSAKVLILVLKRFSDVTGNKLAKNVQYPECLDMQPYMSQQNTGPLVYVLYAVLVHAGWSCHDGHYFSYVKAQEGQWYKMDDAKVTACSITSVLSQQAYVLFYIQKSEWERHSESVSRGREPRALGAEDTDRRATQGELKRDHPCLQAPELDERLVERATQESTLDHWKFPQEQNKTKPEFNVRKVEGTLPPNVLVIHQSKYKCGMKNHHLEQQSSLLNLSSTTRTDQESVNTGTLASLQGRTRRSKGKNKHSKRALLVCQ [chain 1 P480L], the percent of parent is about 68%.

The next test covers variants of B2. The description is as above.
Consider chain 1 MEDDSLYLGGEWQFNHFSKLTSSRPDAAFAEIQRTSLPEKSPLSSEARVDLCDDLAPVARQLAPRKKLPLSSRRPAAVGAGLQNMGNTCYENASLQCLTYTPPLANYMLSREHSQTCQRPKCCMLCTMQAHITWALHSPGHVIQPSQALAAGFHRGKQEDAHEFLMFTVDAMKKACLPGHKQVDHHSKDTTLIHQIFGGCWRSQIKCLHCHGISDTFDPYLDIALDIQAAQSVKQALEQLVKPEELNGENAYHCGLCLQRAPASKTLTLHTSAKVLILVLKRFSDVTGNKLAKNVQYPECLDMQPYMSQQNTGPLVYVLYAVLVHAGWSCHDGHYFSYVKAQEGQWYKMDDAKVTACSITSVLSQQAYVLFYIQKSEWERHSESVSRGREPRALGAEDTDRRATQGELKRDHPCLQAPELDERLVERATQESTLDHWKFPQEQNKTKPEFNVRKVEGTLPPNVLVIHQSKYKCGMKNHHPERQSSLLNLSSTTRTDQESVNTGTLASLQGRTRRSKGKNKHSKRALLVCQ [chain 1 Q482R], for which the percent of parent is about 37%.

With chain 1 MEDDSLYLGGEWQFNHFSKLTSSRPDAAFAEIQRTSLPEKSPLSSEARVDLCDDLAPVARQLAPRKKLPLSSRRPAAVGAGLQNMGNTCYENASLQCLTYTPPLANYMLSREHSQTCQRPKCCMLCTMQAHITWALHSPGHVIQPSQALAAGFHRGKQEDAHEFLMFTVDAMKKACLPGHKQVDHHSKDTTLIHQIFGGCWRSQIKCLHCHGISDTFDPYLDIALDIQAAQSVKQALEQLVKPEELNGENAYHCGLCLQRAPASKTLTLHTSAKVLILVLKRFSDVTGNKLAKNVQYPECLDMQPYMSQQNTGPLVYVLYAVLVHAGWSCHDGHYFSYVKAQEGQWYKMDDAKVTACSITSVLSQQAYVLFYIQKSEWERHSESVSRGREPRALGAEDTDRRATQGELKRDHPCLQAPELDERLVERATQESTLDHWKFPQEQNKTKPEFNVRKVEGTLPPNVLVIHQSKYKCGMKNHHLEQQSSLLNLSSTTRTDQESVNTGTLASLQGRTRRSKGKNKHSKRALLVCQ [chain 1 P480L], the percent of parent was about 68%.

Consider chain 1 MEDDSLYLGGEWQFNHFSKLTSSRPDAAFAEIQRTSLPEKSPLSSEARVDLCDDLAPVARQLAPRKKLPLSSRRPAAVGAGLQNMGNTCYENASLQCLTYTPPLANYMLSREHSQTCQRPKCCMLCTMQAHITWALHSPGHVIQPSQALAAGFHRGKQEDAHEFLMFTVDAMKKACLPGHKQVDHHSKDTTLIHQIFGGCWRSQIKCLHCHGISDTFDPYLDIALDIQAAQSVKQALEQLVKPEELNGENAYHCGLCLQRAPASKTLTLHTSAKVLILVLKRFSDVTGNKLAKNVQYPECLDMQPYMSQQNTGPLVYVLYAVLVHAGWSCHDGHYFSYVKAQEGQWYKMDDAKVTACSITSVLSQQAYVLFYIQKSEWERHSESVSRGREPRALGAEDTDRRATQGELKRDHPCLQAPELDERLVERATQASTLDHWKFPQEQNKTKPEFNVRKVEGTLPPNVLVIHQSKYKCGMKNHHPEQQSSLLNLSSTTRTDQESVNTGTLASLQGRTRRSKGKNKHSKRALLVCQ [chain 1 E431A], for which the percent of parent was about 29%.

Take chain 1 MEDDSLYLGGEWQFNHFSKLTSSRPDAAFAEIQRTSLPEKSPLSSEARVDLCDDLAPVARQLAPRKKLPLSSRRPAAVGAGLQNMGNTCYENASLQCLTYTPPLANYMLSREHSQTCQRPKCCMLCTMQAHITWALHSPGHVIQPSQALAAGFHRGKQEDAHEFLMFTVDAMKKACLPGHKQVDHHSKDTTLIHQIFGGCWRSQIKCLHCHGISDTFDPYLDIALDIQAAQSVKQALEQLVKPEELNGENAYHCGLCLQRAPASKTLTLHTSAKVLILVLKRFSDVTGNKLAKNVQYPECLDMQPYMSQQNTGPLVYVLYAVLVHAGWSCHDGHYFSYVKAQEGQWYKMDDAKVTACSITSVLSQQAYVLFYIQKSEWERHSESVSRGREPRALGAEDTDRRATQGELKRDHPCLQAPELDERLVERVTQESTLDHWKFPQEQNKTKPEFNVRKVEGTLPPNVLVIHQSKYKCGMKNHHPEQQSSLLNLSSTTRTDQESVNTGTLASLQGRTRRSKGKNKHSKRALLVCQ [chain 1 A428V]: the percent of parent is about 79%.

chain 1 MEDDSLYLGGEWQFNHFSKLTSSRPDAAFAEIQRTSLPEKSPLSSEARVDLCDDLAPVARQLAPRKKLPLSSRRPAAVGAGLQNMGNTCYENASLQCLTYTPPLANYMLSREHSQTCQRPKCCMLCTMQAHITWALHSPGHVIQPSQALAAGFHRGKQEDAHEFLMFTVDAMKKACLPGHKQVDHHSKDTTLIHQIFGGCWRSQIKCLHCHGISDTFDPYLDIALDIQAAQSVKQALEQLVKPEELNGENAYHCGLCLQRAPASKTLTLHTSAKVLILVLKRFSDVTGNKLAKNVQYPECLDMQPYMSQQNTGPLVYVLYAVLVHAGWSCHDGHYFSYVKAQEGQWYKMDDAKVTACSITSVLSQQAYVLFYIQKSEWERHSESVSRGREPRALGAEDTDRRATQGELKRDHPCLQAPELDERLVERATAESTLDHWKFPQEQNKTKPEFNVRKVEGTLPPNVLVIHQSKYKCGMKNHHPEQQSSLLNLSSTTRTDQESVNTGTLASLQGRTRRSKGKNKHSKRALLVCQ [chain 1 Q430A]: the percent of parent is about 33%.

Take chain 1 MEDDSLYLGGEWQFNHFSKLTSSRPDAAFAEIQRTSLPEKSPLSSEARVDLCDDLAPVARQLAPRKKLPLSSRRPAAVGAGLQNMGNTCYENASLQCLTYTPPLANYMLSREHSQTCQRPKCCMLCTMQAHITWALHSPGHVIQPSQALAAGFHRGKQEDAHEFLMFTVDAMKKACLPGHKQVDHHSKDTTLIHQIFGGCWRSQIKCLHCHGISDTFDPYLDIALDIQAAQSVKQALEQLVKPEELNGENAYHCGLCLQRAPASKTLTLHTSAKVLILVLKRFSDVTGNKLAKNVQYPECLDMQPYMSQQNTGPLVYVLYAVLVHAGWSCHDGHYFSYVKAQEGQWYKMDDAKVTACSITSVLSQQAYVLFYIQKSEWERHSESVSRGREPRALGAEDTDRRATQGELKRDHPCLQAPELDERLVERATQESTLDHWKFPQEQNKTKPEFNVRKVEGTLPPNVLVIHQSKYKCGMKNHHPEQQLSLLNLSSTTRTDQESVNTGTLASLQGRTRRSKGKNKHSKRALLVCQ [chain 1 S484L]: the percent of parent was about 40%.

Source of the values: PMC6283856 (2018).
